Columns and labels:
Assay in all cases: dot blot, peptide on PVDF membrane
[1] = target: T1, peptide 05/08 (BARF1 201-221) (Epstein-Barr virus)
T1 construct: Spotted on PVDF membrane for dot blot; also called 05/08201-221
T1 peptide: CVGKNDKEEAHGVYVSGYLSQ

peptide 08/08-2 = target: T2, peptide 08/08-2 (Epstein-Barr virus)
T2 construct: 8-mer derived from 08/08 (BARF1 27-40)
T2 peptide: TSYWRRVS

peptide 08/08-2′ = target: T3, peptide 08/08-2′ (Epstein-Barr virus)
T3 construct: 7-mer derived from 08/08′ (BARF1 28-38)
T3 peptide: TSYWRRV

[2] = target: T4, peptide 06/08 (BARF1 104-120) (Epstein-Barr virus)
T4 construct: Spotted on PVDF membrane for dot blot; also called 06/08104-120
T4 peptide: CRMKLGETEVTKQEHLS

Measured: binding result

B1: anti-BARF1 3D4 monoclonal antibody (antibody, V domains shown)
VH: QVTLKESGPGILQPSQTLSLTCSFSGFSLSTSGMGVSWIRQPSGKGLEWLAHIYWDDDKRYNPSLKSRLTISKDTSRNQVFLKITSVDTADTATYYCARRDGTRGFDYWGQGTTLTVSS
VL: QIVLTQSPAIMSASLGERVTMTCTATSSVSSSYLHWYQQKPGSSPKLWIYSTSNLASGVPARFSGSGSGTSYSLTISSMEAEDAATYYCHQYHRSPPWTFGGGTKLEIK
notes: also called 3D4 mAb; clone 3D4
no binding (tested: about 10 µg/spot): all assays above
